# Laboratory results as given in patent US20180188270A1, “DIAGNOSTIC TEST FOR ALZHEIMER'S DISEASE BASED ON IDENTIFICATION OF A PROTEOLYTIC PATHWAY” (Health Research, Inc., priority 2015, published 2018).
# Where “and” joins values, the source holds several entries; their conditions need not be identical. Equal entries are not always repeated.
# Columns and labels:
# [1] = test system: plasma PEPD; experiment: Plasma PEPD concentration in mice by ELISA; type: in vivo, mouse; details: for average plasma level of total PEPD (hPEPD plus mPEPD), increase: hPEPD 10 mg/kg i.p., vs control
# Procedure: (§1) Animal studies. All animal studies were performed in accordance with protocols approved by the Institutional Animal Care and Use Committee at Roswell Park Cancer Institute. Male mice at 7-8 weeks of age were used, including wild type (WT) mice (C57BL/6), and mice deficient in FXII (C57BL/6-FXII^−/−) or FVII (C57BL/6-FVII^tTA/tTA). WT C57BL/6 mice were purchased from Taconic. C57BL/6-FXII^−/− mice and C57BL/6-FVII^tTA/tTA mice were bred in our own facility and genotyped. The breeders were kindly provided by Dr. Francis J. Castellino at University of Notre Dame. […] CCl4 was dissolved in corn oil, whereas all other substances were dissolved in PBS. The vehicle or the test substance was given to mice in 0.1 ml volume per 20 g body weight. Blood was collected from the mice at specific times by cardiac puncture at the time of sacrifice by carbon dioxide, and heart, liver and kidney were also collected from some of the mice. Blood was collected into K3 EDTA-containing tubes (Multivette 600 from Sarstedt), unless specified otherwise. All blood samples were promptly centrifuged to obtain plasma samples.
# Measurement of plasma levels of PEPD, SRC, Aβ1-42 and FI. […] The plates were washed three times with phosphate buffered saline tween-20 (PBST) and the coated wells were blocked by incubation with 200 μl/well of 1% BSA in PBS for at least 2 h at RT. After another round of wash with PBST, the plates were incubated with appropriately diluted Aβ1-42 standard, SRC standard or plasma samples (100 μl/well) for 2 h at RT. The plates were then washed with PBST and incubated with an anti-Aβ1-42 rabbit polyclonal antibody (sc-9129) or anti-SRC rabbit monoclonal antibody (2123) at 100 μl/well for 2 h at RT. The plates were washed again with PBST, and each well was incubated with a goat anti-rabbit IgG-HRP conjugate (100 μl) for 1 h at RT. After yet another round of wash with PBST, each well was incubated with 100 μl of HRP substrate 3,3′,5,5′-tetramethylbenzedine (Cell Signaling, 7004). Upon adequate color development, 100 μl of stop solution (Cell Signaling, 7002) was added to each well, and absorbance at 450 nm was promptly recorded by a microtiter plate reader. Plasma FI concentration was determined using an assay kit (400-374-130050) from GenWay Biotech, following the manufacturer's instruction.
# [2] = molecular target: T1, FVIIa (Homo sapiens, UniProt P08709); experiment: In vitro degradation by FVIIa with or without TF; type: biochemical; details: for hPEPD remaining (enzymatic activity): 60 min
# T1 construct: purchased Haematologic Technologies HCVIIA-0031 (FVIIa); RTF-0300 (TF)
# Procedure: To determine whether a blood coagulation factor degrades hPEPD, hPEPD at 90 nM or lower concentrations (10 or 40 nM) was incubated with solvent, 100 nM FIIa, 100 nM FXa, 10 nM FVIIa with or without 10 nM TF, or 10 nM FVII with or without 10 nM TF and/or 100 nM FIIa in PBS in a total volume of 100 μl containing 5 mM CaCl2 for desired times at RT. […] To compare the hPEPD-degrading activities of different plasma samples, 9.2 pmol of hPEPD was incubated with 100 μl of plasma from WT mice or FVII^tTA/tTA mice at RT, with or without FIIa or FXa (10 pmol), and to maximize detection of any activity, all incubations lasted for 24 h. […] To measure remaining hPEPD, the incubated samples were cleared of potential fibrin clots by centrifugation and then analyzed by SDS-PAGE and silver staining (using the LC 6070 kit from Invitrogen), IB or measurement of hPEPD enzymatic activity. hPEPD enzymatic activity was measured using glycyl-proline as a substrate (as described in Zbucka et al., Folia Histochem Cytobiol 2007; 45 Suppl 1: S181-185). The precipitates from each incubated sample were washed with PBS twice and then resuspended in 2.5% SDS (20 μper sample); each solution was mixed with 10 μl loading dye and analyzed for hPEPD by IB, using pure hPEPD as a standard and factor FXIIIa as a binding control, respectively.
# All samples after incubation were resolved by SDS-PAGE and stained by silver.
# Each value is mean±SD (n=3).
# [3] = test system: ERBB1 and ERBB2; experiment: Tissue levels and phosphorylation of ERBB1 and ERBB2 by IB; type: in vivo, mouse; details: CCl4 0.5 g/kg or hPEPD 4 mg/kg i.p., 24 h
# Procedure: as §1
# IB. […] Protein concentrations in all samples were measured by the BCA assay kit. […] The proteins were transferred to polyvinylidene fluoride membrane, probed with specific antibodies and detected using the ECL Plus Kit (Amersham) or the SuperSignal West Pico Kit (Thermo Scientific).
# T1 sequence (P08709 61-212 limits assumed): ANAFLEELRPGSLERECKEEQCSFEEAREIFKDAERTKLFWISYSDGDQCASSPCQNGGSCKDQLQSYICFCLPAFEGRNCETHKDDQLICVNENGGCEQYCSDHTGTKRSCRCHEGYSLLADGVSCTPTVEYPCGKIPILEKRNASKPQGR
# T1 sequence (P08709 213-466 limits assumed): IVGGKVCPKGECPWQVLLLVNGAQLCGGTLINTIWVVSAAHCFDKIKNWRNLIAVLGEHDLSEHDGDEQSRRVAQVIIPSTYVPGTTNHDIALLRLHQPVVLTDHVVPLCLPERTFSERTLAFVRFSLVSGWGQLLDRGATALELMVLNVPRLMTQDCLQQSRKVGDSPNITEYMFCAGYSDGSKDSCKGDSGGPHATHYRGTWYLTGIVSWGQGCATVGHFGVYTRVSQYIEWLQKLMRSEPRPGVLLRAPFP
# T1 sequence (P13726 33-295 partner): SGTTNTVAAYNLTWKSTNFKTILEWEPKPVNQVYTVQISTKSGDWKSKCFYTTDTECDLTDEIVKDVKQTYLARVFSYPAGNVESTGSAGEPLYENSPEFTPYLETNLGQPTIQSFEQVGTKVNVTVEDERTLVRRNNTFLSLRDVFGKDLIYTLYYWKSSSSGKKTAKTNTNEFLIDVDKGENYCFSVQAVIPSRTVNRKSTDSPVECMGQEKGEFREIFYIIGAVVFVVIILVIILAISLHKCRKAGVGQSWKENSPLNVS
molecule,measurement,setting,value
"hPEPD: recombinant human prolidase (PEPD), 6xHis tagged to the carboxy terminus (protein, UniProt P12955 2-493, looked up, C-terminal 6xHis tag, recombinant human prolidase (PEPD), 6xHis tagged to the carboxy terminus) Xaa-Pro dipeptidase: AAATGPSFWLGNETLKVPLALFALNRQRLCERLRKNPAVQAGSIVVLQGGEETQRYCTDTGVLFRQESFFHWAFGVTEPGCYGVIDVDTGKSTLFVPRLPASHATWMGKIHSKEHFKEKYAVDDVQYVDEIASVLTSQKPSVLLTLRGVNTDSGSVCREASFDGISKFEVNNTILHPEIVECRVFKTDMELEVLRYTNKISSEAHREVMKAVKVGMKEYELESLFEHYCYSRGGMRHSSYTCICGSGENSAVLHYGHAGAPNDRTIQNGDMCLFDMGGEYYCFASDITCSFPANGKFTADQKAVYEAVLRSSRAVMGAMKPGVWWPDMHRLADRIHLEELAHMGILSGSVDAMVQAHLGAVFMPHGLGHFLGIDVHDVGGYPEGVERIDEPGLRSLRTARHLQPGMVLTVEPGIYFIDHLLDEALADPARASFLNREVLQRFRGFGGVRIEEDVVVTDSGIELLTCVPRTVEEIEACMAGCDKAFTPFSGPK","plasma level of total PEPD, increase","[1]; FVII tTA/tTA mice, hPEPD 0.2 mg/kg i.p., 6 h",12.0 fold
same,"plasma level of total PEPD, increase","[1]; FXII−/− mice, hPEPD 0.2 mg/kg i.p., 6 h, no EP",12.5 fold
same,"plasma level of total PEPD, increase","[1]; FXII−/− mice, hPEPD 4 mg/kg i.p., 24 h",134.6 fold
same,"average plasma level of total PEPD, of control","[1]; WT mice, hPEPD 0.2 mg/kg i.p., 1 h",51%
same,"plasma level of total PEPD, decrease","[1]; WT mice, hPEPD 0.2 mg/kg i.p., 6 h, no EP",66% and 56.3%
same,"average plasma level of total PEPD, of control","[1]; WT mice, hPEPD 0.2 mg/kg i.p., 24 h",46%
same,"plasma level of total PEPD, increase","[1]; WT mice, hPEPD 4 mg/kg i.p., 24 h",3.3 fold
same,"average plasma level of total PEPD (hPEPD plus mPEPD), increase","[1]; WT mice, 1 h",19.4 fold
same,"average plasma level of total PEPD (hPEPD plus mPEPD), increase","[1]; WT mice, 24 h",15.1 fold
same,"plasma level of total PEPD, difference between FVII tTA/tTA and WT mice","[1]; hPEPD 0.2 mg/kg i.p., 6 h",68.9 fold
same,"average plasma level of total PEPD, higher in FXII−/− mice than in WT mice","[1]; hPEPD 0.2 mg/kg i.p., 6 h, no EP",53.8 fold
same,proteolysis/fragmentation by FVIIa plus TF,"[2]; FVIIa 10 nM plus TF 10 nM, CaCl2-containing PBS, RT",caused rapid and extensive hPEPD proteolysis
same,degradation by FVIIa in the absence of TF,"[2]; FVIIa 10 nM, no TF",degraded hPEPD
same,hPEPD remaining (enzymatic activity),"[2]; hPEPD 10 nM, FVIIa 10 nM plus TF 10 nM, RT",35.9%
same,hPEPD remaining (enzymatic activity),"[2]; hPEPD 40 nM, FVIIa 10 nM plus TF 10 nM, RT",46.3%
same,hPEPD remaining (enzymatic activity),"[2]; hPEPD 90 nM, FVIIa 10 nM plus TF 10 nM, RT",52.4%
same,"changes in ERBB1/ERBB2 tyrosine phosphorylation and receptor depletion in heart, kidney and liver, WT mice compared to FXII−/− mice",[3],reduced changes in receptor tyrosine phosphorylation
